Reference: article PMC4981545 (Cell reports, 2016)

Experiments:
Assay in all cases: pull-down
[1] = biological target: GST-tagged HPV-16 E2 (16E2), immobilized (HPV-16, UniProt P03120 1-365)
[2] = biological target: GST-tagged HPV-11 E2 (11E2), immobilized (HPV-11, UniProt P04015 1-367)
[3] = biological target: GST-tagged HPV-18 E2 (18E2), immobilized (HPV-18, UniProt P06790 1-365)
[4] = biological target: T1, GST-tagged BPV-1 E2 (BE2), immobilized (bovine papillomavirus type 1 (BPV-1), UniProt P03122 1-410)
T1 sequence: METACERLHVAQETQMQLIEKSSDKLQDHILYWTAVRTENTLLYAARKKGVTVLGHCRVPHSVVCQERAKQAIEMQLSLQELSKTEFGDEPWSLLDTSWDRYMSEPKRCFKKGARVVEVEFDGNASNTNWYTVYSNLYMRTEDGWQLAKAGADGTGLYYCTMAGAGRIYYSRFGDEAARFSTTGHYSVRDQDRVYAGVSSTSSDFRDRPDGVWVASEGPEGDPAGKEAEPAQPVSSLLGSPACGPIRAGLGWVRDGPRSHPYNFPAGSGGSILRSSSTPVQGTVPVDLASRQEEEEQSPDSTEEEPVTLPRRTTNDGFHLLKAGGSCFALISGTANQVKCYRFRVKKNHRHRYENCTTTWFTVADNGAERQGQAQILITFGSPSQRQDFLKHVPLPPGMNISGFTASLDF

[5] = biological target: Sf9-PDID of BRD4 with S492 substituted to alanine (human, UniProt O60885 287-530, S492 to alanine)
[6] = biological target: Sf9-PDID of BRD4 with S494 substituted to alanine (human, UniProt O60885 287-530, S494 to alanine)
[7] = biological target: Sf9-PDID of BRD4 with S498 substituted to alanine (human, UniProt O60885 287-530, S498 to alanine)
[8] = biological target: Sf9-PDID of BRD4 with S499 substituted to alanine (human, UniProt O60885 287-530, S499 to alanine)
[9] = biological target: Sf9-PDID of BRD4 with S488 substituted to alanine (human, UniProt O60885 287-530, S488 to alanine)

Measured: binding result

GST-tagged HPV-18 E2 (18E2), immobilized, sequence (P06790 whole entry): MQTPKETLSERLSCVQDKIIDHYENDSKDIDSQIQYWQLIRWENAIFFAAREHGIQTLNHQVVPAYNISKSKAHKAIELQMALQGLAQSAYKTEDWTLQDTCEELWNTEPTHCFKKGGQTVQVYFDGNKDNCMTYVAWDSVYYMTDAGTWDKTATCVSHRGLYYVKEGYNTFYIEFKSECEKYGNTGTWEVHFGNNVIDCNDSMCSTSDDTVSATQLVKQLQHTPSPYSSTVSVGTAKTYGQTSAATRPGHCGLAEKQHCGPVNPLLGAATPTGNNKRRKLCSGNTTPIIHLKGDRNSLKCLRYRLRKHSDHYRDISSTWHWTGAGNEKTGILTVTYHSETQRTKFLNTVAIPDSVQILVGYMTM
GST-tagged HPV-16 E2 (16E2), immobilized, sequence (P03120 whole entry): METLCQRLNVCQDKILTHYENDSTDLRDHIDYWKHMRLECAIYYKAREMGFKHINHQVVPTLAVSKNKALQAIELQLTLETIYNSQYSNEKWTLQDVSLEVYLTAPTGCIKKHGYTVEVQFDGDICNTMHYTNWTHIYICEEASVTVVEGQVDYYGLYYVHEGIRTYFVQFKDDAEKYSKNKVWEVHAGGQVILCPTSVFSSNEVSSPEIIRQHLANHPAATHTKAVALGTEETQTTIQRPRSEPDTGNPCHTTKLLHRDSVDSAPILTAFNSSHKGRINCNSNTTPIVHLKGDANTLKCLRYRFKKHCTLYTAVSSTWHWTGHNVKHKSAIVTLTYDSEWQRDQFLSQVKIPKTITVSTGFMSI
GST-tagged HPV-11 E2 (11E2), immobilized, sequence (P04015 whole entry): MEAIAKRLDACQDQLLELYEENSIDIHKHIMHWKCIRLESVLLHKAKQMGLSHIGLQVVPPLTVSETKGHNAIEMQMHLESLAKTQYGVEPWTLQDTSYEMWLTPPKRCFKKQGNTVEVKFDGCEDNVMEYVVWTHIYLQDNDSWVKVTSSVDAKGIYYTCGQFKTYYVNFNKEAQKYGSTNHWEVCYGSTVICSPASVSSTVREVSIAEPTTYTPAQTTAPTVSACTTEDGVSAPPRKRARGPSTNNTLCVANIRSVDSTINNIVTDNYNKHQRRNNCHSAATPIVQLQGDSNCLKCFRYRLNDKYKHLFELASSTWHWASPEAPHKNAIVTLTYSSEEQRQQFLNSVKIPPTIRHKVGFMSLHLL

B1: Sf9-BID of BRD4 (fragment 6) (domain or fragment, human, UniProt O60885 524-579, looked up)
chain: QLAALSQPQQNKPKKKEKDKKEKKKEKHKRKEEVEENKKSKAKEPPPKKTKKNNSS
binds: [1] | [2] | [3] | [4]

B2: GST-BID of BRD4 (domain or fragment, human, UniProt O60885 524-579, looked up)
chain: B1 chain
binds: [5] | [6] | [7] | [8] | [9]

B3: Bac-expressed FLAG-tagged BID of BRD4 (aa 524–579, fragment c) (domain or fragment, human, UniProt O60885 524-579, looked up)
chain: B1 chain
binds: [1] | [2] | [3] | [4]
